Tests used:
[1] = target: T1, pig (Sus scrofa) B7H4, full length, on HEK-293F cells (pig, UniProt Q7Z7D3 26-282 (human entry)); experiment: flow cytometry, HEK-293F cells transfected with pig B7H4 [panel Pig B7H4]
T1 construct: Uniprot F1SAY4; also called pig B7H4
T1 chain: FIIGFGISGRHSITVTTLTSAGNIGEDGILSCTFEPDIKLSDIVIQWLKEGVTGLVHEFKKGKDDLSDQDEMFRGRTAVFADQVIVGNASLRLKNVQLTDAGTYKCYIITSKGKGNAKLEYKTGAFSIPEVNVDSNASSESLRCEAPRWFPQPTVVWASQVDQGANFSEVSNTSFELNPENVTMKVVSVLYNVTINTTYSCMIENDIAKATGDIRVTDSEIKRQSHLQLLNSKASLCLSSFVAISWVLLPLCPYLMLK
Description: (§1) Cells (3×10⁴ cells/well) were incubated in polystyrene 96-well round-bottom plates (Greiner bio-one, cat. no. 650180) with serial dilutions of antibodies (ranging from 0.000458 to 30 μg/mL in 4-fold dilution steps) in 100 μL PBS/0.1% BSA/0.02% azide (staining buffer) at 4° C. for 30 min. Experiments were performed in technical duplicate. After washing twice in staining buffer, cells were incubated in 50 μL secondary antibody at 4° C. for 30 min. As a secondary antibody, R-Phycoerythrin (PE)-conjugated goat-anti-human IgG F(ab′)₂ (1:500 in FACS buffer; Jackson ImmunoResearch Laboratories, Inc., West Grove, PA, cat. no. 109-116-098), was used. Cells were washed twice in staining buffer, re-suspended in 30 μL FACS buffer containing Topro-3 (1:10,000 dilution) and analyzed on an iQue Screener (Intellicyt Corporation, USA). Binding curves were analyzed using non-linear regression (sigmoidal dose-response with variable slope) using GraphPad Prism V7.02 software (GraphPad Software, San Diego, CA, USA).

[2] = target: T2, human recombinant His tagged B7H4 protein (Sino Biological cat. no. 10738-H08H) (human, UniProt Q7Z7D3 29-258); experiment: BLI (Octet HTX); antibody on anti-human IgG Fc capture sensor, human B7H4 ECD-His in solution; 2nd experiment
T2 construct: Bought protein; theoretical mass 26.8 kDa; also called human B7H4; human B7H4 extracellular domain
T2 sequence: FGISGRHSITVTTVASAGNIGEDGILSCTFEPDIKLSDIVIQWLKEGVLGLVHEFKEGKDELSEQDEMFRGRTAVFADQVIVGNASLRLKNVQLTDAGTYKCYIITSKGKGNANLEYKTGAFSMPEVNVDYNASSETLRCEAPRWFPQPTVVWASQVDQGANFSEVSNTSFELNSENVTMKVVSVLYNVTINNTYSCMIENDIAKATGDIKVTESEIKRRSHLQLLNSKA
Description: (§2) Target binding affinity of B7H4 antibodies was determined by label-free biolayer interferometry (BLI) on an Octet HTX instrument (FortéBio). Experiments were carried out while shaking at 1,000 RPM at 30° C. […] Anti-Human IgG Fc Capture (AHC) biosensors (FortéBio, cat. no. 18-5060) were pre-conditioned by exposure to 10 mM glycine (Sigma-Aldrich, cat. no. 15527) buffer pH 1.7 for 5 s, followed by neutralization in Sample Diluent (FortéBio, cat. no. 18-1048) for 5 s; both steps were repeated 2 times. Next, AHC sensors were loaded with antibody (1 μg/mL in Sample diluent) for 600 s. […] The theoretical molecular mass of human B7H4 and mouse B7H4 (as ECD-His tagged molecules) based on their amino acid sequences (26.8 kDa and 26.6 kDa respectively) were used for calculations. For each antibody a reference sensor was used, which was incubated with Sample Diluent instead of antigen. AHC sensors were regenerated by exposure to 10 mM glycine buffer pH 1.7 for 5 s, followed by neutralization in Sample Diluent for 5 s; both steps were repeated twice. Subsequently sensors were loaded again with antibody for the next cycle of kinetics measurements.
(§3) Data were acquired using Data Acquisition Software v9.0.0.49d (FortéBio) and analyzed with Data Analysis Software v9.0.0.12 (FortéBio). Data traces were corrected per antibody by subtraction of the reference sensor. The Y-axis was aligned to the last 10 s of the baseline, Interstep Correction alignment to dissociation and Savitzky-Golay filtering were applied. Data traces with a response<0.05 nm were excluded from analysis. The data was fitted with the 1:1 Global Full fit model using a window of interest for the association and dissociation times set at 300 s and 200 s respectively.

[3] = target: T3, human B7H4, full length, on cells (human, UniProt Q7Z7D3 25-282); experiment: flow cytometry on NIH-OVCAR-3 tumor cells [panel NIH-Ovcar-3 cells]
T3 construct: Uniprot Q7Z7D3; Used for transfected HEK cells and for the B7H4-expressing human tumor cell lines (endogenous B7H4); also called VTCN1
T3 sequence: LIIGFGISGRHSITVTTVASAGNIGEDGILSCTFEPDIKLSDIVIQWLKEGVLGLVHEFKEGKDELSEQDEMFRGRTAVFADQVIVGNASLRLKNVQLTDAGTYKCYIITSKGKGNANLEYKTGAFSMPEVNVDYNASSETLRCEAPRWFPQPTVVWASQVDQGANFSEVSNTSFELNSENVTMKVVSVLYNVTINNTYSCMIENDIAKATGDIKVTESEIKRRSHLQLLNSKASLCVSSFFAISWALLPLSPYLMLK
Description: as §1
Binding was analyzed by flow cytometry as described above.

[4] = target: T3, human B7H4, full length, on cells; experiment: flow cytometry, HEK-293F cells transfected with human B7H4 [panel Human B7H4]
Description: as §1

[5] = target: T4, mouse (Mus musculus) B7H4, full length, on HEK-293F cells (mouse, UniProt Q7TSP5 25-257); experiment: flow cytometry, HEK-293F cells transfected with mouse B7H4 [panel Mouse B7H4]
T4 construct: Uniprot Q7TSP5; also called mouse B7H4
T4 sequence: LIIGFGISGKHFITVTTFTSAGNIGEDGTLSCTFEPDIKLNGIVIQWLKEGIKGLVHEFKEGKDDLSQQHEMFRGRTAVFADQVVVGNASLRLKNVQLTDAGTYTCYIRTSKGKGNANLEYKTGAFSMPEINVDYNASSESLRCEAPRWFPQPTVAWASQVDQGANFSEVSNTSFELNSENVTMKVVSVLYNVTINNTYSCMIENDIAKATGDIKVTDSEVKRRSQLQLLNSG
Description: as §1

[6] = target: T2, human recombinant His tagged B7H4 …; experiment: BLI (Octet HTX); antibody on anti-human IgG Fc capture sensor, human B7H4 ECD-His in solution; 2nd experiment (average of n = 3)
Description: as §2, §3

B1: IgG1-B7H4-C5-FEAR (antibody, V domains shown)
VH: QLQLQESGPGLVKPSETLSLTCTVSGGSIKSGSYYWGWIRQPPGKGLEWIGNIYYSGSTYYNPSLRSRVTISVDTSKNQFSLKLSSVTAADTAVYYCAREGSYPNQFDPWGQGTLVTVSS
VL: EIVMTQSPATLSVSPGERATLSCRASQSVSSNLAWYQQKPGQAPRLLIYGASTRATGIPARFSGSGSGTEFTLTISSLQSEDFAVYYCQQYHSFPFTFGGGTKVEIKR
notes: Full length IgG1 FEAR, kappa; variable domains from US20190085080A1
[1]
  binding result: binds
[2]
  Kd: 9.9 nM
  koff: 0.0025 s⁻¹
  kon: 250000 M⁻¹ s⁻¹

B2: bsIgG1-huCD3-H101G-FEALxB7H4-C1-N52S-FEAR (bispecific antibody)
heavy 1: not shown
light 1: not shown
heavy 2: QVQLQQWGAGLLKPSETLSLTCAVYGGSFSGYYWSWIRQPPGKGLEWIGEISHSGSTNYNPSLKSRVTISIDTSKNQFSLKLTSVTAADTAVFYCARGLFNWNFDSWGQGTLVTVSSASTKGPSVFPLAPSSKSTSGGTAALGCLVKDYFPEPVTVSWNSGALTSGVHTFPAVLQSSGLYSLSSVVTVPSSSLGTQTYICNVNHKPSNTKVDKRVEPKSCDKTHTCPPCPAPEFEGGPSVFLFPPKPKDTLMISRTPEVTCVVVAVSHEDPEVKFNWYVDGVEVHNAKTKPREEQYNSTYRVVSVLTVLHQDWLNGKEYKCKVSNKALPAPIEKTISKAKGQPREPQVYTLPPSREEMTKNQVSLTCLVKGFYPSDIAVEWESNGQPENNYKTTPPVLDSDGSFFLYSRLTVDKSRWQQGNVFSCSVMHEALHNHYTQKSLSLSPGK
light 2: DIQMTQSPSSLSASVGDRVTITCRASQGIRNDLGWYQQKPGKAPKRLIYGASSLQSGVPSRFSGSGSGTEFTLTISSLQPEDFATYYCLQHNSYPRTFGQGTTVEIKRTVAAPSVFIFPPSDEQLKSGTASVVCLLNNFYPREAKVQWKVDNALQSGNSQESVTEQDSKDSTYSLSSTLTLSKADYEKHKVYACEVTHQGLSSPVTKSFNRGEC
notes: also called bslgG1-huCD3-H101G-FEALxB7H4-C1-N52S-FEAR; BslgG1-huCD3-H101G-FEALxB7H4-C1-N52S-FEAR
[3]
  EC50 (read off the curve): ~2 µg/mL

B3: IgG1-B7H4-C1-N52S-FEAR (antibody, V domains shown)
VH: QVQLQQWGAGLLKPSETLSLTCAVYGGSFSGYYWSWIRQPPGKGLEWIGEISHSGSTNYNPSLKSRVTISIDTSKNQFSLKLTSVTAADTAVFYCARGLFNWNFDSWGQGTLVTVSS
VL: DIQMTQSPSSLSASVGDRVTITCRASQGIRNDLGWYQQKPGKAPKRLIYGASSLQSGVPSRFSGSGSGTEFTLTISSLQPEDFATYYCLQHNSYPRTFGQGTTVEIKR
notes: Full length human IgG1 with L234F, L235E, D265A, K409R (FEAR) heavy chain constant region and kappa light chain; bivalent, monospecific; also called IgG1-B7H4-C1-052S-FEAR
[4]
  EC50 (read off the curve): ~0.05 µg/mL
[5]
  EC50 (read off the curve): ~0.3 µg/mL
[6]
  Kd: 57 nM
  koff: 0.0047 s⁻¹
  kon: 84000 M⁻¹ s⁻¹

Reference: US20240383982A1 (Genmab, published 2024)
